Measured values taken from PMC5498468, “Exposure to the Epstein–Barr Viral Antigen Latent Membrane Protein 1 Induces Myelin-Reactive Antibodies In Vivo” (Frontiers in Immunology, 2017).
No end group written: not given here.

Biological target: T1, Bovine myelin basic protein (MBP) (bovine, UniProt P02687 1-169)
T1 construct: Myelin basic protein, bovine
Assay: ELISA + other: WB (methods) or immunoprecipitation (results); synthetic peptides with C-terminal Lys-biotin tested for binding of MBP and LMP1; one grade a pair for the two assays
Settings: both partners purified

T1 sequence (P02687 whole entry): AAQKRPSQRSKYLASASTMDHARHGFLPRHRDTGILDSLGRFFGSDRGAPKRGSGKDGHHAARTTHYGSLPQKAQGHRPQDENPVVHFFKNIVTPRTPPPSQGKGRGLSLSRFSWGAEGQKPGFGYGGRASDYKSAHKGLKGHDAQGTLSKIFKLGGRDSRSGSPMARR

B1: Synthesized biotinylated peptide P3, TYGGTFTDYLYNWVK (Bio) (peptide)
peptide: TYGGTFTDYLYNWVK
modifications: also: C-terminal Lys-biotin
notes: source: synthetic peptide (Shanghai Ruifu Chemical Co., Ltd.)
binding result: binds
